Laboratory results reported in patent US20230279406A1.

Legend:
Test in all cases: cell-based or functional assay
[1] = biological target: T1, CD380 PV1-RfxCas13d-656C-NLS-BGHpA
T1 sequence: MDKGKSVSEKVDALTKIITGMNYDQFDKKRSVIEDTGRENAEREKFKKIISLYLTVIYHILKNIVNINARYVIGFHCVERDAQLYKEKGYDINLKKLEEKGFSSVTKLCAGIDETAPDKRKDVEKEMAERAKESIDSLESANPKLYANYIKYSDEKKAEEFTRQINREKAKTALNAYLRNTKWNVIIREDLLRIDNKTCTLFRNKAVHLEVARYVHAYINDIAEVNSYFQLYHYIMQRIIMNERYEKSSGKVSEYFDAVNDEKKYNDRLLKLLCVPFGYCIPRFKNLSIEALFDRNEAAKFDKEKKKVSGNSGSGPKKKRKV

[2] = biological target: T2, CD376 PV1-RfxCas13d-566C-NLS-BGHpA
T2 sequence: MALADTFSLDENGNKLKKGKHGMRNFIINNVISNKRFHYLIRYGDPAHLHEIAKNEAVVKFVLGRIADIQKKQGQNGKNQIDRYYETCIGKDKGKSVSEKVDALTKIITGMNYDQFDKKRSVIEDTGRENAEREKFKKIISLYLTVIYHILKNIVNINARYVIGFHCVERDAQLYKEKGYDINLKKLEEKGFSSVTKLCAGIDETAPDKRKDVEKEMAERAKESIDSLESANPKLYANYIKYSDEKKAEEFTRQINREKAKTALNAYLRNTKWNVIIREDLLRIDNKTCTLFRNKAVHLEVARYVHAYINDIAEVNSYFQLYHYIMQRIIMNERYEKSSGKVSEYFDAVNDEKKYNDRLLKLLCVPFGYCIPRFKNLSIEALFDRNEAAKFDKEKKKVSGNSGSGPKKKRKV

[3] = biological target: CD176 PV1-tandem CaffVHH-L1-iCre-271C-NLS-BGHpA
Chain of CD176 PV1-tandem CaffVHH-L1-iCre-271C-NLS-BGHpA (chain, as listed by the source): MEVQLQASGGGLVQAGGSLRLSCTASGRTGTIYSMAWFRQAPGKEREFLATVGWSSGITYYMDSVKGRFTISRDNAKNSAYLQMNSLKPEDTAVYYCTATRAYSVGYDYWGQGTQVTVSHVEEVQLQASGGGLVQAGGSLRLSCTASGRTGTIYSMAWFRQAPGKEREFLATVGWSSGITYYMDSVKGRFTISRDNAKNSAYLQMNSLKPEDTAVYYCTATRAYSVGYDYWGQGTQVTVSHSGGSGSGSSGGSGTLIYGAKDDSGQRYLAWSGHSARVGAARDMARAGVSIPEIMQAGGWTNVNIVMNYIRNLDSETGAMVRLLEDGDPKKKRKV

B1: CD379 PV1-RfxCas13d-N655-NLS-BGHpA (protein)
chain: MIEKKKSFAKGMGVKSTLVSGSKVYMTTFAEGSDARLEKIVEGDSIRSVNEGEAFSAEMADKNAGYKIGNAKFSHPKGYAVVANNPLYTGPVQQDMLGLKETLEKRYFGESADGNDNICIQVIHNILDIEKILAEYITNAAYAVNNISGLDKDIIGFGKFSTVYTYDEFKDPEHHRAAFNNNDKLINAIKAQYDEFDNFLDNPRLGYFGQAFFSKEGRNYIINYGNECYDILALLSGLRHWVVHNNEEESRISRTWLYNLDKNLDNEYISTLNYLYDRITNELTNSFSKNSAANVNYIAETLGINPAEFAEQYFRFSIMKEQKNLGFNITKLREVMLDRKDMSEIRKNHKVFDSIRTKVYTMMDFVIYRYYIEEDAKVAAANKSLPDNEKSLSEKDIFVINLRGSFNDDQKDALYYDEANRIWRKLENIMHNIKEFRGNKTREYKKKDAPRLPRILPAGRDVSAFSKLMYALTMFLDGKEINDLLTTLINKFDNIQSFLKVMPLIGVNAKFVEEYAFFKDSAKIADELRLIKSFARMGEPIADARRAMYIDAIRILGTNLSYDELKALADTFSLDENGNKLKKGKHGMRNFIINNVISNKRFHYLIRYGDPAHLHEIAKNEAVVKFVLGRIADIQKKQGQNGKNQIDRYYETCIGKPKKKRKV
gRNA induced mCherry knockdown efficiency, no CID domain [1]: < 80%

B2: CD375 PV1-RfxCas13d-N565-NLS-BGHpA (protein)
chain: MIEKKKSFAKGMGVKSTLVSGSKVYMTTFAEGSDARLEKIVEGDSIRSVNEGEAFSAEMADKNAGYKIGNAKFSHPKGYAVVANNPLYTGPVQQDMLGLKETLEKRYFGESADGNDNICIQVIHNILDIEKILAEYITNAAYAVNNISGLDKDIIGFGKFSTVYTYDEFKDPEHHRAAFNNNDKLINAIKAQYDEFDNFLDNPRLGYFGQAFFSKEGRNYIINYGNECYDILALLSGLRHWVVHNNEEESRISRTWLYNLDKNLDNEYISTLNYLYDRITNELTNSFSKNSAANVNYIAETLGINPAEFAEQYFRFSIMKEQKNLGFNITKLREVMLDRKDMSEIRKNHKVFDSIRTKVYTMMDFVIYRYYIEEDAKVAAANKSLPDNEKSLSEKDIFVINLRGSFNDDQKDALYYDEANRIWRKLENIMHNIKEFRGNKTREYKKKDAPRLPRILPAGRDVSAFSKLMYALTMFLDGKEINDLLTTLINKFDNIQSFLKVMPLIGVNAKFVEEYAFFKDSAKIADELRLIKSFARMGEPIADARRAMYIDAIRILGTNLSYDELKPKKKRKV
gRNA induced mCherry knockdown efficiency, no CID domain [2]: < 80%

B3: CD175 PV1-iCre-N270-L1-tandem CaffVHH-NLS-BGHpA (protein)
chain: MSNLLTVHQNLPALPVDATSDEVRKNLMDMFRDRQAFSEHTWKMLLSVCRSWAAWCKLNNRKWFPAEPEDVRDYLLYLQARGLAVKTIQQHLGQLNMLHRRSGLPRPSDSNAVSLVMRRIRKENVDAGERAKQALAFERTDFDQVRSLMENSDRCQDIRNLAFLGIAYNTLLRIAEIARIRVKDISRTDGGRMLIHIGRTKTLVSTAGVEKALSLGVTKLVERWISVSGVADDPNNYLFCRVRKNGVAAPSATSQLSTRALEGIFEATHRSGGSGSGSSGGSGTMEVQLQASGGGLVQAGGSLRLSCTASGRTGTIYSMAWFRQAPGKEREFLATVGWSSGITYYMDSVKGRFTISRDNAKNSAYLQMNSLKPEDTAVYYCTATRAYSVGYDYWGQGTQVTVSHVEEVQLQASGGGLVQAGGSLRLSCTASGRTGTIYSMAWFRQAPGKEREFLATVGWSSGITYYMDSVKGRFTISRDNAKNSAYLQMNSLKPEDTAVYYCTATRAYSVGYDYWGQGTQVTVSHPKKKRKV
recombination upon caffeine induction, tandem against single CaffVHH split Cre 270/271 [3]: < 13 fold
